# Test results as given in US8865473B2, “Luminescence detecting apparatuses and methods” (Applied Biosystems, LLC, priority 1999, dated 2014).
# Target: T1, Orexin 2 Receptor (Homo sapiens, UniProt O43614)
# T1 construct: host or cells: CHO cells co-expressing aequorin (CHO-Aeq-OX2-A2)
# T1 sequence (O43614 1-444): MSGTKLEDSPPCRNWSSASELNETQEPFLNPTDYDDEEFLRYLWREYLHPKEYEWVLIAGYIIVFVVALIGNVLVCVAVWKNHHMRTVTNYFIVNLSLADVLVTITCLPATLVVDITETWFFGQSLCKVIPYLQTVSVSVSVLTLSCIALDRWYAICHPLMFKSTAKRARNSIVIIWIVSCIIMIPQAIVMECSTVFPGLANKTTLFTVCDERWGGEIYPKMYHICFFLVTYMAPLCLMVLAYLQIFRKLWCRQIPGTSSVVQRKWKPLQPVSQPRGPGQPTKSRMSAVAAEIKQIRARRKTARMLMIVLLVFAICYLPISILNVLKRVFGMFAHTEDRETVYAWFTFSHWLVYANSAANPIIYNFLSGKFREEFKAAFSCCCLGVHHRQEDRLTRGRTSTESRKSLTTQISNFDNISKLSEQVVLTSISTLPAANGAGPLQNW
# Experiment: Aequorin luminescence agonist assay in CHO-Aeq-OX2-A2 cells on NorthStar
# Assay type: cell-based
# Details: coelenterazine h +/- 0.6 μM BAPTA-AM 4 hours, light integrated 20 seconds, unchanged in the presence of BAPTA-AM, read-out: reported EC50 for Orexin B
# Method: CHO-Aeq-OX2-A2 cells (Euroscreen) were loaded with coelenterazine h+/−0.6 μM BAPTA-AM for 4 hours. The peptide agonist Orexin B was injected into the wells, and the emitted light was integrated for 20 seconds on the NorthStar™.
substance,measurement,value
Orexin B,EC50,0.75 nM
